Assays:
[1] = target: T1, human CCR8 (human, UniProt P51685 1-355); assay: cell-based or functional assay
[2] = target: T1, human CCR8; assay: cell-based or functional assay; remark: listed apart in the source
[3] = target: T2, GST-FcgR3a.F158 (UniProt P08637 17-208, limits assumed); assay: ELISA, GST-FcgR3a captured by anti-GST antibody
T2 construct: Captured by anti-GST antibody on ELISA plate; also called FcgR3a.F158 protein; Fcgamma RIIIa F158; not shown: GST tag
Description: (§1) The binding of fucosylated and afucosylated variants of hu.Ab5.H13L1 and hu.Ab4.H12L3 to both FcgR3a proteins by ELISA was studied. Briefly, an anti-GST antibody was coated on Nunc Maxisorp plates. GST-FcgR3a.V158 and GST-FcgR3a.F158 were captured at 500 ng/mL. Plates were then washed and then serially diluted anti-CCR8 antibodies starting at 100 ug/mL were incubated on the plate for 1 hour at room temperature. Plates were washed and bound antibody was detected by a HRP-conjugated anti-human IgG secondary antibody. Absorbance at 450 nm was measured by a plate reader. The data were fitted using a 4-parameter logistic curve in Softmax Pro.

[4] = target: T3, GST-FcgR3a.V158 (UniProt P08637 17-208, limits assumed); assay: ELISA, GST-FcgR3a captured by anti-GST antibody
T3 construct: Captured by anti-GST antibody on ELISA plate; also called FcgR3a.V158 protein; Fcgamma RIIIa V158; not shown: GST tag
T3 sequence (P08637 17-208 F176V limits assumed): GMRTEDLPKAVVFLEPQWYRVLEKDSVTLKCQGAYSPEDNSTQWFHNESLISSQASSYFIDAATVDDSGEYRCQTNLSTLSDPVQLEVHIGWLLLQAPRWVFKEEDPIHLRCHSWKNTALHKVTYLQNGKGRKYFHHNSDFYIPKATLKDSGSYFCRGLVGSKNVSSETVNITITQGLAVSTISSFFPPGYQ
Description: as §1

[5] = target: T2, GST-FcgR3a.F158; assay: ELISA, GST-FcgR3a.F158 captured by anti-GST antibody
Description: as §1

[6] = target: T3, GST-FcgR3a.V158; assay: ELISA, GST-FcgR3a.V158 captured by anti-GST antibody
Description: as §1

[7] = target: T4, cyno CCR8 (cynomolgus monkey, UniProt O97665 1-356 (rhesus entry)); assay: whole-blood flow cytometry of cyno blood spiked ex vivo with a saturating concentration of the antibody, detected with labeled goat anti-human IgG on FoxP3+ T-reg cells; relative percentage of CCR8+ T-reg cells
T4 construct: also called cynomolgus monkey CCR8
T4 sequence (O97665 other isoform, or with tags, fused parts or gaps): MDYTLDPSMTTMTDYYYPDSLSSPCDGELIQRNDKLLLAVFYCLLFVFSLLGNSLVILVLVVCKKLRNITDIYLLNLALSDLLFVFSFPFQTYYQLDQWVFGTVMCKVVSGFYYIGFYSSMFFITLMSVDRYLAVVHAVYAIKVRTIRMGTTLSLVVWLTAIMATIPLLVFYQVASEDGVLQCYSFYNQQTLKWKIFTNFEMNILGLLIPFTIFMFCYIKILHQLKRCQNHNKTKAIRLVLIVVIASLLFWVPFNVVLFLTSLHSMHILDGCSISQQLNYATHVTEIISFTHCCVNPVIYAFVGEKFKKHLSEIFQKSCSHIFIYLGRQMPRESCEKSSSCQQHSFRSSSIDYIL
Description: Blood was collected from each of the animals before dosing (“Pre-study”), as well as on Day 1 at 0 hours (“Pre-dose”). Each of the animals were then administered a single dose of 10 mg/kg afucosylated anti-gD (Control Group), Afuc.hu.Ab5.H13L1 (Group 2) or Afuc.hu.Ab4.H12L3 (Group 3) via intravenous injection. Blood was then collected from the animals and subjected to the following treatment prior to flow cytometry analysis: (i) blood sample not spiked with either test CCR8 mAb (“unspiked”), (ii) blood sample further spiked with a saturating concentration of Afuc.hu.Ab5.H13L1, and (iii) blood sample further spiked with a saturating concentration of Afuc.hu.Ab4.H12L3. Each of the unspiked and spiked samples were subsequently treated with a labeled goat anti-human IgG antibody and analyzed by flow cytometry. […] Furthermore, flow cytometry of spiked blood also had very little effect on the total CCR8+T-reg cell count.
Anti-CCR8 antibodies Afuc.hu.Ab5.H13L1, Afuc.hu.Ab4.H12L3, and the control anti-gD were used for this study.

T2 sequence (P08637 17-208 limits assumed): as the sequence (P08637 17-208 F176V limits assumed) above, with V160F counted along it

B1: Afuc.hu.Ab4.H12L3 (antibody, human IgG1, kappa)
heavy: not shown
light: DYQMTQSPSSLSASVGDRVTITCQASQSISSYLSWYQQKPGKAPKLLIYKASTLASGVPSRFSGSGSGTDFTLTISSLQPEDFATYYCQQGYTSSNIDNIFGGGTKVEIKRTVAAPSVFIFPPSDEQLKSGTASVVCLLNNFYPREAKVQWKVDNALQSGNSQESVTEQDSKDSTYSLSSTLTLSKADYEKHKVYACEVTHQGLSSPVTKSFNRGEC
modifications: afucosylated Fc N-glycan at position Asn299; between about 80% to about 95% afucosylation
notes: also called Afuc.Ab4.H12L3; afucosylated hu.Ab4.H12L3
Q: For B1, which “ADCC EC50, NK-92 F158 cells (FIG. 11A)” value [1] is on record?
A: 6 pM

Q: And the “ADCC EC50, NK-92 F158 cells (FIG. 11C)” value [1]?
A: 6 pM

Q: And the “ADCC EC50, NK-92 V158 cells (FIG. 11B)” value [1]?
A: 11 pM

Q: And the “ADCP EC50, macrophages HR/FF (FIG. 14A)” value [2]?
A: 0.025 nM

Q: What about the “ADCP EC50, macrophages HR/FF (FIG. 14E)” value [2] of the same binder?
A: 0.035 nM

Q: And the “ADCP EC50, macrophages HR/VF (FIG. 14C)” value [2]?
A: 0.017 nM

Q: And the “ADCP EC50, macrophages RR/FF (FIG. 14B)” value [2]?
A: 0.12 nM

Q: And the “ADCP EC50, macrophages RR/VF (FIG. 14D)” value [2]?
A: 0.079 nM

Q: What about the “fold increase in binding potency versus fucosylated counterpart” value (shortened to “fold increase”) [3] of the same binder?
A: ~10 fold

Q: What about the “fold increase” value [4] of the same binder?
A: ~10 fold

Q: What about the EC50 [5] of the same binder?
A: 0.08 µg/mL

Q: And the EC50 [6]?
A: 0.033 µg/mL

Q: Does B1 bind [7]?
A: binds

B2: Afuc.hu.Ab5.H13L1 (antibody, human IgG1, kappa)
heavy: not shown
light: DIQVTQSPSSLSASVGDRVTITCQASENIANALAWYQQKPGKPPKFLIYGASNLASGVPSRFSGSGSGTDFTFTISSLQPEDIATYYCQQAYYGNSFVEGTFGGGTKVEIKRTVAAPSVFIFPPSDEQLKSGTASVVCLLNNFYPREAKVQWKVDNALQSGNSQESVTEQDSKDSTYSLSSTLTLSKADYEKHKVYACEVTHQGLSSPVTKSFNRGEC
modifications: afucosylated Fc N-glycan at position Asn299; between about 80% to about 95% afucosylation
notes: also called Afuc.Ab5.H13L1; afucosylated hu.Ab5.H13L1
Q: B2 was tested. Which “ADCC EC50, NK-92 F158 cells (FIG. 11A)” value [1] did it give?
A: 4.7 pM

Q: What about the “ADCC EC50, NK-92 F158 cells (FIG. 11C)” value [1] of the same binder?
A: 3 pM

Q: And the “ADCC EC50, NK-92 V158 cells (FIG. 11B)” value [1]?
A: 7.3 pM

Q: What about the “ADCP EC50, macrophages HR/FF (FIG. 14A)” value [2] of the same binder?
A: 0.017 nM

Q: And the “ADCP EC50, macrophages HR/FF (FIG. 14E)” value [2]?
A: 0.022 nM

Q: And the “ADCP EC50, macrophages HR/VF (FIG. 14C)” value [2]?
A: 0.01 nM

Q: And the “ADCP EC50, macrophages RR/FF (FIG. 14B)” value [2]?
A: 0.2 nM

Q: What about the “ADCP EC50, macrophages RR/VF (FIG. 14D)” value [2] of the same binder?
A: 0.5 nM

Q: What about the “fold increase” value [3] of the same binder?
A: ~10 fold

Q: And the “fold increase” value [4]?
A: ~10 fold

Q: What about the EC50 [5] of the same binder?
A: 0.101 µg/mL

Q: And the EC50 [6]?
A: 0.035 µg/mL

Q: Does B2 bind [7]?
A: binds

— US20230049152A1 (Genentech, published 2023)
